# Results taken from US6835807B1, “Drug complex and drug delivery system” (Daiichi Pharmaceuticals Co., Ltd., priority 1998, dated 2004).
# Marks after values point to notes of the source that are not given here.
# Experiments:
# [1] = system: Meth A cells; assay: Antineoplastic activity of the complexes of Examples 1, 5 and 6 (Example 10); type: in vivo, BALB/c mice; conditions: singly administered on the 7th day; for IR, diminution rate of the tumor: 21th day; for Average tumor weight: tumor weighed on the 21th day
# Protocol: Meth A cells were transplanted into BALB/c mice to prepare Meth A tumor-bearing mice. On the 7th day after the transplantation, the drug complexes shown in Examples 1, 5 and 6 were singly administered, respectively. The weight of the tumor was measured on the 21th day to evaluate the inhibitory activity on the tumor and the toxicity. In the table, * represents significance in Dunnet's test (*** p<0.001, ** P<0.01, * P<0.05), the dose is expressed in terms of the weight of anhydrous free base of DX-8951, and IR represents the diminution rate of the tumor.
# [2] = system: Meth A tumor-bearing mice; assay: Maximum tolerated dose of the drug complexes of Examples 5, 6 and 7 (Example 9); type: in vivo, BALB/c mice; conditions: single administration on the 13th day
# Protocol: Meth A cells were transplanted into BALB/c mice to prepare Meth A tumor-bearing mice. On the 13th day, the drug complexes obtained in Examples 5, 6 and 7 were singly administered. After the administration, measurement of the body weight and observation of toxic death were made with time, and the maximum body-weight reduction rate and mortality were calculated, which are shown in Table 5. The dose is expressed in terms of the weight of anhydrous free base of DX-8951.
# On the basis of the dose in which body weight reduction and death were observed, MTD of each complex were judged as follows.
# [3] = Release of the drug compound from the drug complex in buffer (Example 8); type: physicochemical; conditions: for released amount of the drug (DX-8951), percentage of the drug in the drug complex used: 37° C., 50 μg/ml, after 20 hours
# Protocol: (50 μg/ml). […] The released amount of the drug is expressed in percentage of the released amount of the drug to the amount of the drug in the drug complex used.
# [4] = system: Meth A tumor-bearing mice; assay: Maximum tolerated dose (MTD) of the drug complex of Example 1 (Example 3); type: in vivo, BALB/c mice; conditions: for N, mice died/mice used / BWLmax, maximum body-weight reduction rate / day when the maximum body-weight reduction was observed: single administration on the 20th day
# Protocol: Meth A cells were transplanted into BALB/c mice to prepare Meth A tumor-bearing mice. On the 20th day, single administration of the drug complex of Example 1 was carried out. After the administration, measurement of the body weight and observation of toxic death were made with time and the maximum body-weight reduction rate and mortality were calculated, which are shown in Table 2. The dose is expressed in terms of the weight of anhydrous free base of DX-8951.
# [5] = Release of the drug compound from the drug complex in Meth A homogenate (Example 2); type: in vitro ADME, murine; conditions: for released amount of the drug (DX-8951), percentage of the drug in the drug complex used: 37° C., 378 μg/ml, after 20 hours
# Protocol: (§1) The drug complex obtained in Example 1 was dissolved in a Meth A (murine fibrosarcoma Meth A) homogenate or a buffer at 37° C. (378 μg/ml). After 20 hours, released DX-8951 was determined. The compound wherein the spacer and DX-8951 were bound to each other without p-aminobenzyloxycarbonyl group was prepared and used as a comparative compound. The released amount of the drug is expressed in percentage of the released amount of the drug to the amount of the drug in the drug complex used.
# [6] = system: Meth A cells (murine fibrosarcoma Meth A); assay: Antineoplastic activity of the drug complex of Example 1 (Example 4); type: in vivo, BALB/c mice; conditions: for BWLmax, maximum body-weight reduction rate / N, mice died/mice used / IR, diminution rate of the tumor / Average tumor weight / day when the maximum body-weight reduction was observed: administered on the 7th day; for IR, diminution rate of the tumor: 21th day; for Average tumor weight: tumor weighed on the 21th day
# Protocol: Meth A cells (murine fibrosarcoma Meth A) were transplanted into BALB/c mice to prepare Meth A tumor-bearing mice. On the 7th day after the transplantation, the drug complex of Example 1 was administered. The weight of the tumor was measured on the 21th day to evaluate the inhibitory activity on the tumor and the toxicity. In the table, * represents significance in Dunnet's test (*** P<0.001, ** P<0.01), the dose is expressed in terms of the weight of anhydrous free base of DX-8951, and IR represents the diminution rate of the tumor.
# [7] = Release of the drug compound from the drug complex in mouse plasma (Example 2); type: in vitro ADME; conditions: 37° C., 378 μg/ml, after 20 hours
# [8] = Release of the drug compound from the drug complex in buffer (Example 2); type: physicochemical; conditions: for released amount of the drug (DX-8951), percentage of the drug in the drug complex used: 37° C., 378 μg/ml, after 20 hours
# Protocol: as §1
substance,measurement,setting,value
Carboxymethyldextran polyalcohol-Gly-Gly-Gly-Phe-NH-p-C6H4—CH2—O—CO-DX-8951 [Example 6],"IR, diminution rate of the tumor",[1]; 0.15625 mg/kg,37%
same,Average tumor weight,[1]; 0.15625 mg/kg,1.645 ± 0.191* g
same,"IR, diminution rate of the tumor",[1]; 0.3125 mg/kg,46%
same,Average tumor weight,[1]; 0.3125 mg/kg,1.419 ± 0.163** g
same,"IR, diminution rate of the tumor",[1]; 0.625 mg/kg,90%
same,Average tumor weight,[1]; 0.625 mg/kg,0.272 ± 0.066*** g
same,"IR, diminution rate of the tumor",[1]; 1.25 mg/kg,99%
same,Average tumor weight,[1]; 1.25 mg/kg,0.016 ± 0.008*** g
carboxymethyldextran polyalcohol-Gly-Gly-NH-p-C6H4—CH2—O—CO-DX-8951 [Example 7],"BWLmax, maximum body-weight reduction rate",[2]; 5 mg/kg,25.4%
same,day when the maximum body-weight reduction was observed,[2]; 5 mg/kg,18 days
same,"BWLmax, maximum body-weight reduction rate",[2]; 10 mg/kg,13.7%
same,day when the maximum body-weight reduction was observed,[2]; 10 mg/kg,16 days
same,"BWLmax, maximum body-weight reduction rate",[2]; 20 mg/kg,14.2%
same,day when the maximum body-weight reduction was observed,[2]; 20 mg/kg,16 days
same,"BWLmax, maximum body-weight reduction rate",[2]; 30 mg/kg,14.6%
same,day when the maximum body-weight reduction was observed,[2]; 30 mg/kg,16 days
same,MTD,[2]; dose as DX-8951 anhydrous free base,<2.5 mg/kg
same,"released amount of the drug (DX-8951), percentage of the drug in the drug complex used",[3]; Buffer (pH 4.5),0.15%
same,"released amount of the drug (DX-8951), percentage of the drug in the drug complex used",[3]; Buffer (pH 6.5),0.16%
same,release of the drug in words,[3]; buffer,hardly released
Carboxymethyldextran polyalcohol-Gly-Gly-Phe-Gly-NH-p-C6H4—CH2—O—CO-DX-8951 [Example 1],"N, mice died/mice used",[4]; 0.156 mg/kg,0/2
same,"BWLmax, maximum body-weight reduction rate","[4]; 0.156 mg/kg, <0 = no reduction observed",<0%
same,"N, mice died/mice used",[4]; 0.625 mg/kg,0/2
same,"BWLmax, maximum body-weight reduction rate","[4]; 0.625 mg/kg, <0 = no reduction observed",<0%
same,toxic death in words,[4]; 10 mg/kg,toxic death of all the cases
same,"BWLmax, maximum body-weight reduction rate",[4]; 10 mg/kg,32.8%
same,"N, mice died/mice used",[4]; 10 mg/kg,2/2
same,day when the maximum body-weight reduction was observed,[4]; 10 mg/kg,26 days
same,"BWLmax, maximum body-weight reduction rate",[4]; 30 mg/kg (as DX-8951 anhydrous free base),17.9%
same,"N, mice died/mice used",[4]; 30 mg/kg,2/2
same,day when the maximum body-weight reduction was observed,[4]; 30 mg/kg,22 days
same,"N, mice died/mice used",[4]; […],0/2
same,"released amount of the drug (DX-8951), percentage of the drug in the drug complex used",[5]; Meth A homogenate (pH 4.5),37.7%
same,"released amount of the drug (DX-8951), percentage of the drug in the drug complex used",[5]; Meth A homogenate (pH 5.5),38.1%
same,"released amount of the drug (DX-8951), percentage of the drug in the drug complex used",[5]; Meth A homogenate (pH 6.5),4.25%
same,releasing rate of DX-8951 relative to the drug complex obtained in Example 5,[5]; tables in Examples 2 and 8,about 113
same,release of the drug in words,[5]; weakly acidic homogenate,rapidly released
same,"BWLmax, maximum body-weight reduction rate",[6]; 0.625 mg/kg,<0%
same,"N, mice died/mice used",[6]; 0.625 mg/kg,0/6
same,"IR, diminution rate of the tumor",[6]; 0.625 mg/kg,46%
same,Average tumor weight,[6]; 0.625 mg/kg,1.247 ± 0.280** g
same,"BWLmax, maximum body-weight reduction rate",[6]; 1.25 mg/kg,0.3%
same,"N, mice died/mice used",[6]; 1.25 mg/kg,0/6
same,day when the maximum body-weight reduction was observed,[6]; 1.25 mg/kg,8 days
same,"IR, diminution rate of the tumor",[6]; 1.25 mg/kg,74%
same,Average tumor weight,[6]; 1.25 mg/kg,0.610 ± 0.180*** g
same,"BWLmax, maximum body-weight reduction rate",[6]; 5 mg/kg,2.9%
same,"N, mice died/mice used",[6]; 5 mg/kg,0/6
same,day when the maximum body-weight reduction was observed,[6]; 5 mg/kg,13 days
same,"IR, diminution rate of the tumor",[6]; 5 mg/kg,99%
same,Average tumor weight,[6]; 5 mg/kg,0.019 ± 0.004*** g
same,"BWLmax, maximum body-weight reduction rate",[6]; 7.5 mg/kg,24.8%
same,"N, mice died/mice used",[6]; 7.5 mg/kg,2/6
same,day when the maximum body-weight reduction was observed,[6]; 7.5 mg/kg,15 days
same,"IR, diminution rate of the tumor",[6]; 7.5 mg/kg,100%
same,Average tumor weight,[6]; 7.5 mg/kg,0.008 ± 0.002*** g
same,effect on tumor weight in words,[6]; 0.625 to 7.5 mg/kg,apparently diminished tumor weight dose-dependently
same,"N, mice died/mice used",[6]; […],0/6
same,"released amount of the drug (DX-8951), percentage of the drug in the drug complex used",[7],0.186%
same,"released amount of the drug (DX-8951), percentage of the drug in the drug complex used",[8]; Buffer (pH 4.5),0.190%
same,"released amount of the drug (DX-8951), percentage of the drug in the drug complex used",[8]; Buffer (pH 5.5),0.178%
same,"released amount of the drug (DX-8951), percentage of the drug in the drug complex used",[8]; Buffer (pH 6.5),0.171%
same,"released amount of the drug (DX-8951), percentage of the drug in the drug complex used",[8]; Buffer (pH 7.5),0.138%
same,release of the drug in words,[8]; buffer,hardly released
same,"BWLmax, maximum body-weight reduction rate",[1]; 0.625 mg/kg,<0%
same,"N, mice died/mice used",[1]; 0.625 mg/kg,0/6
same,"IR, diminution rate of the tumor",[1]; 0.625 mg/kg,43%
same,Average tumor weight,[1]; 0.625 mg/kg,1.489 ± 0.215** g
same,"BWLmax, maximum body-weight reduction rate",[1]; 1.25 mg/kg,<0%
same,"N, mice died/mice used",[1]; 1.25 mg/kg,0/6
same,"IR, diminution rate of the tumor",[1]; 1.25 mg/kg,71%
same,Average tumor weight,[1]; 1.25 mg/kg,0.775 ± 0.207*** g
same,"BWLmax, maximum body-weight reduction rate",[1]; 5 mg/kg,4.0%
same,"N, mice died/mice used",[1]; 5 mg/kg,0/6
same,day when the maximum body-weight reduction was observed,[1]; 5 mg/kg,13 days
same,"IR, diminution rate of the tumor",[1]; 5 mg/kg,100%
same,Average tumor weight,[1]; 5 mg/kg,0.004 ± 0.001*** g
same,"BWLmax, maximum body-weight reduction rate",[1]; 7.5 mg/kg,26.1%
same,"N, mice died/mice used",[1]; 7.5 mg/kg,2/6
same,day when the maximum body-weight reduction was observed,[1]; 7.5 mg/kg,16 days
same,"IR, diminution rate of the tumor",[1]; 7.5 mg/kg,100%
same,Average tumor weight,[1]; 7.5 mg/kg,0.005 ± 0.003*** g
same,"N, mice died/mice used",[1]; […],0/6
